Measured values published in patent US20260217797A1.
Like-named read-outs stand apart in the source and are kept apart here.

Key:
[1] = target: SARS-CoV-2 WT RBD (SARS-CoV-2) (UniProt P0DTC2); experiment: Octet BLI single point, monovalent
[2] = target: SARS-CoV-2 wild type spike protein (on reporter virus particles) (SARS-CoV-2) (UniProt P0DTC2); experiment: cell-based or functional assay
[3] = target: SARS-CoV-2 wild type spike protein (on reporter virus particles) (SARS-CoV-2) (UniProt P0DTC2); experiment: cell-based or functional assay; remark: listed apart in the source
[4] = target: SARS-CoV-1 spike protein (SARS-CoV-1) (UniProt P59594); experiment: cell-based or functional assay
[5] = target: Bat coronavirus WIV16 spike protein (Bat coronavirus WIV16); experiment: cell-based or functional assay

## RGN10933 (antibody)
[1]
  Kd: 3.62 nM
[2]
  PsV neutralization IC50: 0.002 µg/mL
  PsV neutralization IC90: 0.024 µg/mL
[3]
  PSV IC50: 0.028 µg/mL
  PsV neutralization IC50: 0.0067 µg/mL
  PsV neutralization IC90: 0.081 µg/mL
  SARS2 IC50: 0.022 nM
  WT PsV IC50: 0.185 nM

## RGN10987 (antibody)
[1]
  Kd: 9.13 nM
[2]
  PsV neutralization IC50: 0.007 µg/mL
  PsV neutralization IC90: 0.078 µg/mL
[3]
  PSV IC50: 0.031 µg/mL
  WT PsV IC50: 0.292 nM

## S309 (antibody)
[4]
  PsV neutralization IC50: 0.01 µg/mL
  PsV neutralization IC90: 0.043 µg/mL
[2]
  PsV neutralization IC50: 0.009 µg/mL
  PsV neutralization IC90: 0.051 µg/mL
[5]
  PsV neutralization IC50: 0.016 µg/mL
  PsV neutralization IC90: 0.305 µg/mL
[3]
  WT PsV IC50: 6.56 nM
